Results taken from patent US11278600B2, “Human alpha-galactosidase variants” (Codexis, Inc., priority 2014, dated 2022).
Numbering of substitutions follows the chain as printed.

B1: 320 (protein)
chain: LDNGLARTPTMGWLHWERFMCNLDCQEEPDSCISEKLFMEMAELMVSEGWKDAGYEYLCIDDCWMAPQRDSEGRLQADPQRFPHGIRQLANYVHSKGLKFGIYADVGNKTCAGFPGSFGYYDIDAQTFADWGVDLLKFDGCYCDSLENLADGYKHMSLALNRTGRSIVYSCEWPLYMWPFQKPNYTEIRQYCNHWRNFADIDDSWASIKSILDWTSFNQERIVDVAGPGGWNDPDMLVIGNFGLSWDQQVTQMALWAIMAAPLFMSNDLRHISPQAKALLQDKDVIAINQDPLGKQGYQLRKGDNFEVWERPLSGLAWAVAIINRQEIGGPRSYTIAVASLGKGVACNPACFITQLLPVKRKLGFYNWTSRLKSHINPTGTVLLQLENTMQMSLKDLL
modifications: Synthetic Polypeptide sequence of Variant No. 320 of mature Human GLA
B2: 323 (protein)
chain: B1 chain with L160I, R221K, D247N, K302Q, I322V
modifications: Synthetic Polypeptide sequence of Variant No. 323 of mature Human GLA
B3: 325 (protein)
chain: B1 chain with L44R, F100L, F217R, K302Q, L316D, A337P, K343G, K362Q
modifications: Synthetic Polypeptide sequence of Variant No. 325 of mature Human GLA
B4: 324 (protein)
chain: B1 chain with L23S, F100L, D247N, K302Q
modifications: Synthetic Polypeptide sequence of Variant No. 324 of mature Human GLA
B5: 328 (protein)
chain: B1 chain with L44R, F100L, F217R, D247N, A337P, A350G, T369S
modifications: Synthetic Polypeptide sequence of Variant No. 328 of mature Human GLA
B6: 321 (protein)
chain: B1 chain with R221K, K302Q, K343G
modifications: Synthetic Polypeptide sequence of Variant No. 321 of mature Human GLA
B7: 330 (protein)
chain: B1 chain with L44R, F100L, I208V, R221K, D247N, K302Q, K343D
modifications: Synthetic Polypeptide sequence of Variant No. 330 of mature Human GLA
B8: 331 (protein)
chain: B1 chain with L44R, F100L, I208V, R221K, K302Q, K343D, I376V
modifications: Synthetic Polypeptide sequence of Variant No. 331 of mature Human GLA
B9: 322 (protein)
chain: B1 chain with R221T, D247N, K343D
modifications: Synthetic Polypeptide sequence of Variant No. 322 of mature Human GLA
B10: 332 (protein)
chain: B1 chain with L44R, F100L, I208V, R221T, D247N, K343G, F365L, I376V
modifications: Synthetic Polypeptide sequence of Variant No. 332 of mature Human GLA
B11: 329 (protein)
chain: B1 chain with L44R, F100L, I208V, K343D
modifications: Synthetic Polypeptide sequence of Variant No. 329 of mature Human GLA
B12: 326 (protein)
chain: B1 chain with L44R, F100L, F217R, L316D, A337P, K362Q
modifications: Synthetic Polypeptide sequence of Variant No. 326 of mature Human GLA
B13: 327 (protein)
chain: B1 chain with L44R, F100L, F217R, L316D, K343D, A350G, K362Q
modifications: Synthetic Polypeptide sequence of Variant No. 327 of mature Human GLA

Key:
Assay type in all cases: biochemical
[1] = HTP-analysis of supernatants pretreated with acid (MUGal hydrolysis); details: challenge at pH 4.0; activity of the variant/activity of Rd3BB (SEQ ID NO: 13); yeast culture supernatant
Summary of the method: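 Fluorescence of MUGal hydrolysis (Ex. 355 nm, Em. 448 nm) is read after sodium carbonate quench. The enzyme source is INVSc1 yeast culture supernatant, first exposed to pH 3.3-4.3 McIlvaine buffer at 37° C. for 1-3 h, then reacted at pH 4.8 for 30-180 minutes.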

[2] = HTP-analysis of supernatants pretreated with base (MUGal hydrolysis); details: challenge at pH 8.2; activity of the variant/activity of Rd3BB (SEQ ID NO: 13); yeast culture supernatant
Summary of the method: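 GLA variants were secreted by transformed INVSc1 yeast grown 66-84 h at 30° C. Supernatants were exposed to neutral-to-basic buffers (pH 7.0-9.7) at 37° C for 1-18 h, then assayed with MUGal in acidic citrate/McIlvaine buffer, with fluorescence read after quenching.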

[3] = HTP-analysis of supernatants pretreated with bovine serum (MUGal hydrolysis); details: activity of the variant/activity of Rd3BB (SEQ ID NO: 13), yeast culture supernatant
Summary of the method: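 Yeast INVSc1 culture supernatants containing secreted GLA variants were mixed with bovine serum (20:80) and held 1 h at 37° C. Serum-treated samples then reacted with MUGal (4 mM stock) in citrate/McIlvaine buffer (pH 4.3/4.8) for 180 min at 37° C., were quenched with sodium carbonate, and read by fluorescence (Ex 355, Em 448 nm).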

[4] = HTP-analysis of yeast culture supernatants, no challenge (MUGal hydrolysis); details: activity of the variant/activity of Rd3BB (SEQ ID NO: 13), yeast culture supernatant
Summary of the method: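 GLA variants expressed in yeast INVSc1, secreted into SD-Ura broth over 66-84 h at 30° C; clarified supernatants tested without challenge. Supernatant mixed with McIlvaine buffer pH 4.8 and 2 mM MUGal (citrate/KCl, pH 4.6), 37° C for 30-180 min, carbonate-quenched, fluorescence Ex 355/Em 448 nm.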

| Molecule | Relative Activity of GLA Variants After Challenge at pH 4.0 [1] | Relative Activity of GLA Variants After Challenge at pH 8.2 [2] | Relative Activity of GLA Variants After Challenge with Serum [3] | Relative Activity of GLA Variants After No Challenge (NC) [4] |
| --- | --- | --- | --- | --- |
| B1 | + (+ = 0.5 to 1.5 relative activity over Rd3BB (SEQ ID NO: 13)) | + (+ = 0.5 to 1.5 relative activity over Rd3BB (SEQ ID NO: 13)) | + (+ = 0.5 to 1.5 relative activity over Rd3BB (SEQ ID NO: 13)) | + (+ = 0.5 to 1.5 relative activity over Rd3BB (SEQ ID NO: 13)) |
| B2 | − (− = <0.5 relative activity to Rd3BB (SEQ ID NO: 13)) | − (− = <0.5 relative activity to Rd3BB (SEQ ID NO: 13)) | + (+ = 0.5 to 1.5 relative activity over Rd3BB (SEQ ID NO: 13)) | − (− = <0.5 relative activity to Rd3BB (SEQ ID NO: 13)) |
| B3 | +++ (+++ = >2.5 relative activity over Rd3BB (SEQ ID NO: 13)) | +++ (+++ = >2.5 relative activity over Rd3BB (SEQ ID NO: 13)) | +++ (+++ = >2.5 relative activity over Rd3BB (SEQ ID NO: 13)) | ++ (++ = >1.5 to 2.5 relative activity over Rd3BB (SEQ ID NO: 13)) |
| B4 | − (− = <0.5 relative activity to Rd3BB (SEQ ID NO: 13)) | − (− = <0.5 relative activity to Rd3BB (SEQ ID NO: 13)) | − (− = <0.5 relative activity to Rd3BB (SEQ ID NO: 13)) | − (− = <0.5 relative activity to Rd3BB (SEQ ID NO: 13)) |
| B5 | + (+ = 0.5 to 1.5 relative activity over Rd3BB (SEQ ID NO: 13)) | + (+ = 0.5 to 1.5 relative activity over Rd3BB (SEQ ID NO: 13)) | + (+ = 0.5 to 1.5 relative activity over Rd3BB (SEQ ID NO: 13)) | + (+ = 0.5 to 1.5 relative activity over Rd3BB (SEQ ID NO: 13)) |
| B6 | ++ (++ = >1.5 to 2.5 relative activity over Rd3BB (SEQ ID NO: 13)) | +++ (+++ = >2.5 relative activity over Rd3BB (SEQ ID NO: 13)) | + (+ = 0.5 to 1.5 relative activity over Rd3BB (SEQ ID NO: 13)) | ++ (++ = >1.5 to 2.5 relative activity over Rd3BB (SEQ ID NO: 13)) |
| B7 | ++ (++ = >1.5 to 2.5 relative activity over Rd3BB (SEQ ID NO: 13)) | + (+ = 0.5 to 1.5 relative activity over Rd3BB (SEQ ID NO: 13)) | + (+ = 0.5 to 1.5 relative activity over Rd3BB (SEQ ID NO: 13)) | ++ (++ = >1.5 to 2.5 relative activity over Rd3BB (SEQ ID NO: 13)) |
| B8 | ++ (++ = >1.5 to 2.5 relative activity over Rd3BB (SEQ ID NO: 13)) | ++ (++ = >1.5 to 2.5 relative activity over Rd3BB (SEQ ID NO: 13)) | + (+ = 0.5 to 1.5 relative activity over Rd3BB (SEQ ID NO: 13)) | + (+ = 0.5 to 1.5 relative activity over Rd3BB (SEQ ID NO: 13)) |
| B9 | + (+ = 0.5 to 1.5 relative activity over Rd3BB (SEQ ID NO: 13)) | ++ (++ = >1.5 to 2.5 relative activity over Rd3BB (SEQ ID NO: 13)) | + (+ = 0.5 to 1.5 relative activity over Rd3BB (SEQ ID NO: 13)) | + (+ = 0.5 to 1.5 relative activity over Rd3BB (SEQ ID NO: 13)) |
| B10 | + (+ = 0.5 to 1.5 relative activity over Rd3BB (SEQ ID NO: 13)) | + (+ = 0.5 to 1.5 relative activity over Rd3BB (SEQ ID NO: 13)) | + (+ = 0.5 to 1.5 relative activity over Rd3BB (SEQ ID NO: 13)) | + (+ = 0.5 to 1.5 relative activity over Rd3BB (SEQ ID NO: 13)) |
| B11 | ++ (++ = >1.5 to 2.5 relative activity over Rd3BB (SEQ ID NO: 13)) | ++ (++ = >1.5 to 2.5 relative activity over Rd3BB (SEQ ID NO: 13)) | ++ (++ = >1.5 to 2.5 relative activity over Rd3BB (SEQ ID NO: 13)) | + (+ = 0.5 to 1.5 relative activity over Rd3BB (SEQ ID NO: 13)) |
| B12 | +++ (+++ = >2.5 relative activity over Rd3BB (SEQ ID NO: 13)) | +++ (+++ = >2.5 relative activity over Rd3BB (SEQ ID NO: 13)) | +++ (+++ = >2.5 relative activity over Rd3BB (SEQ ID NO: 13)) | ++ (++ = >1.5 to 2.5 relative activity over Rd3BB (SEQ ID NO: 13)) |
| B13 | +++ (+++ = >2.5 relative activity over Rd3BB (SEQ ID NO: 13)) | +++ (+++ = >2.5 relative activity over Rd3BB (SEQ ID NO: 13)) | +++ (+++ = >2.5 relative activity over Rd3BB (SEQ ID NO: 13)) | ++ (++ = >1.5 to 2.5 relative activity over Rd3BB (SEQ ID NO: 13)) |
